Experimental findings from the supplement of paper PMC5998384 are described below.

Data set [1] relates to HeLa Kyoto. Nature of the data set: solubility in G1/S (NP-40 vs SDS abundance) (log2 ratio); higher = more soluble. The conditions noted are these: cell cycle stage: G1/S.
Data set [2] concerns HeLa Kyoto. The data set can be described thus: melting temperature (median over replicates), in situ; higher = more thermally stable.
Data set [3] relates to HeLa Kyoto. The data set can be described thus: solubility change mitosis vs G1/S (difference of NP-40 vs SDS log2 ratios) (log2 ratio difference); higher = more soluble in mitosis.
Data set [4] relates to HeLa Kyoto. The data set can be described thus: thermal stability score vs G1/S (z-score of summed log2 fold changes over temperatures); higher = more thermally stable than in G1/S.
Setting [5] is: cell cycle stage: early G1 (4.5 h after nocodazole release).
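For melting temperature (median over replicates), in situ in this document: HeLa Kyoto cells synchronized by double thymidine or nocodazole block, proteins quantified by TMT10plex mass spectrometry, three independent biological replicates.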
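For solubility change mitosis vs G1/S (difference of NP-40 vs SDS log2 ratios) in this document: synchronized HeLa Kyoto cells (double thymidine block for G1/S, nocodazole release for mitosis), protein amounts in NP-40 versus SDS lysates quantified by mass spectrometry, three biological replicates.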
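For solubility in G1/S (NP-40 vs SDS abundance) in this document: HeLa Kyoto cells arrested at G1/S by double thymidine block, proteins quantified by TMT10plex mass spectrometry in mild NP-40 versus SDS extracts, three biological replicates.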
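For thermal stability score vs G1/S (z-score of summed log2 fold changes over temperatures) in this document: synchronized HeLa Kyoto cells, proteins quantified by TMT10plex mass spectrometry, three biological replicates, mitosis taken 0.5 h after nocodazole release, G1/S directly after double thymidine block.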

For the sequence “MAEHPPLLDTTQILSSDISLLSAPIVSADGTQQVILVQVNPGEAFTIRREDGQFQCITGPAQVPMMSPNGSVPPIYVPPGYAPQVIEDNGVRRVVVVPQAPEFHPGSHTVLHRSPHPPLPGFIPVPTMMPPPPRHMYSPVTGAGDMTTQYMPQYQSSQVYGDVDAHSTHGRSNFRDERSSKTYERLQKKLKDRQGTQKDKMSSPPSSPQKCPSPINEHNGLIKGQIAGGINTGSAKIKSGKGKGGTQVDTEIEEKDEETKAFEALLSNIVKPVASDIQARTVVLTWSPPSSLINGETDESSVPELYGYEVLISSTGKDGKYKSVYVGEETNITLNDLKPAMDYHAKVQAEYNSIKGTPSEAEIFTTLSCEPDIPNPPRIANRTKNSLTLQWKAPSDNGSKIQNFVLEWDEGKGNGEFCQCYMGSQKQFKITKLSPAMGCKFRLSARNDYGTSGFSEEVLYYTSGCAPSMPASPVLTKAGITWLSLQWSKPSGTPSDEGISYILEMEEETSGYGFKPKYDGEDLAYTVKNLRRSTKYKFKVIAYNSEGKSNPSEVVEFTTCPDKPGIPVKPSVKGKIHSHSFKITWDPPKDNGGATINKYVVEMAEGSNGNKWEMIYSGATREHLCDRLNPGCFYRLRVYCISDGGQSAVSESLLVQTPAVPPGPCLPPRLQGRPKAKEIQLRWGPPLVDGGSPISCYSVEMSPIEKDEPREVYQGSEVECTVSSLLPGKTYSFRLRAANKMGFGPFSEKCDITTAPGPPDQCKPPQVTCRSATCAQVNWEVPLSNGTDVTEYRLEWGGVEGSMQICYCGPGLSYEIKGLSPATTYYCRVQALSVVGAGPFSEVVACVTPPSVPGIVTCLQEISDDEIENPHYSPSTCLAISWEKPCDHGSEILAYSIDFGDKQSLTVGKVTSYIINNLQPDTTYRIRIQALNSLGAGPFSHMIKLKTKPLPPDPPRLECVAFSHQNLKLKWGEGTPKTLSTDSIQYHLQMEDKNGRFVSLYRGPCHTYKVQRLNESTSYKFCIQACNEAGEGPLSQEYIFTTPKSVPAALKAPKIEKVNDHICEITWECLQPMKGDPVIYSLQVMLGKDSEFKQIYKGPDSSFRYSSLQLNCEYRFRVCAIRQCQDSLGHQDLVGPYSTTVLFISQRTEPPASTNRDTVESTRTRRALSDEQCAAVILVLFAFFSILIAFIIQYFVIK [FNDC3A]”, the “solubility in G1/S (log2)” value in the data set on HeLa Kyoto [1] was -0.111. Further, the melting temperature in the data set with HeLa Kyoto [2] (cell cycle stage: G1/S) was determined as 48.7 °C; in the data set with HeLa Kyoto [2] (cell cycle stage: mitosis), 49.1 °C. Moreover, the “solubility change mitosis (log2)” value with HeLa Kyoto [3] is -0.0736. For the same sequence, the thermal stability score with HeLa Kyoto [4] (setting [5]) was found to be 1.05; in the data set with HeLa Kyoto [4] (cell cycle stage: mitosis) it was 2.65.

With “MAHRPKRTFRQRAADSSDSDGAEESPAEPGAPRELPVPGSAEEEPPSGGGRAQVAGLPHRVRGPRGRGRVWASSRRATKAAPRADEGSESRTLDVSTDEEDKIHHSSESKDDQGLSSDSSSSLGEKELSSTVKIPDAAFIQAARRKRELARAQDDYISLDVQHTSSISGMKRESEDDPESEPDDHEKRIPFTLRPQTLRQRMAEESISRNEETSEESQEDEKQDTWEQQQMRKAVKIIEERDIDLSCGNGSSKVKKFDTSISFPPVNLEIIKKQLNTRLTLLQETHRSHLREYEKYVQDVKSSKSTIQNLESSSNQALNCKFYKSMKIYVENLIDCLNEKIINIQEIESSMHALLLKQAMTFMKRRQDELKHESTYLQQLSRKDETSTSGNFSVDEKTQWILEEIESRRTKRRQARVLSGNCNHQEGTSSDDELPSAEMIDFQKSQGDILQKQKKVFEEVQDDFCNIQNILLKFQQWREKFPDSYYEAFISLCIPKLLNPLIRVQLIDWNPLKLESTGLKEMPWFKSVEEFMDSSVEDSKKESSSDKKVLSAIINKTIIPRLTDFVEFLWDPLSTSQTTSLITHCRVILEEHSTCENEVSKSRQDLLKSIVSRMKKAVEDDVFIPLYPKSAVENKTSPHSKFQERQFWSGLKLFRNILLWNGLLTDDTLQELGLGKLLNRYLIIALLNATPGPDVVKKCNQVAACLPEKWFENSAMRTSIPQLENFIQFLLQSAHKLSRSEFRDEVEEIILILVKIKALNQAESFIGEHHLDHLKSLIKED [GCFC2]”, the “solubility in G1/S (log2)” value in the data set on HeLa Kyoto [1] was 0.109. Besides, the melting temperature came to 51.2 °C with HeLa Kyoto [2] (cell cycle stage: G1/S) and 51.7 °C in the data set with HeLa Kyoto [2] (cell cycle stage: mitosis). For the same sequence, in the data set with HeLa Kyoto [3], the “solubility change mitosis (log2)” value is -0.0501. For the same sequence, the thermal stability score in the data set on HeLa Kyoto [4] (setting [5]) was -2.18; in the data set on HeLa Kyoto [4] (cell cycle stage: mitosis) it was -1.62.

Consider “MAPKKRPETQKTSEIVLRPRNKRSRSPLELEPEAKKLCAKGSGPSRRCDSDCLWVGLAGPQILPPCRSIVRTLHQHKLGRASWPSVQQGLQQSFLHTLDSYRILQKAAPFDRRATSLAWHPTHPSTVAVGSKGGDIMLWNFGIKDKPTFIKGIGAGGSITGLKFNPLNTNQFYASSMEGTTRLQDFKGNILRVFASSDTINIWFCSLDVSASSRMVVTGDNVGNVILLNMDGKELWNLRMHKKKVTHVALNPCCDWFLATASVDQTVKIWDLRQVRGKASFLYSLPHRHPVNAACFSPDGARLLTTDQKSEIRVYSASQWDCPLGLIPHPHRHFQHLTPIKAAWHPRYNLIVVGRYPDPNFKSCTPYELRTIDVFDGNSGKMMCQLYDPESSGISSLNEFNPMGDTLASAMGYHILIWSQEEARTRK [DDB2]”, for which the “solubility in G1/S (log2)” value with HeLa Kyoto [1] was -0.0537. Moreover, the values for the melting temperature in the data set with HeLa Kyoto [2] (cell cycle stage: G1/S) and in the data set on HeLa Kyoto [2] (cell cycle stage: mitosis) were 55.7 °C and 56.7 °C, respectively. The “solubility change mitosis (log2)” value in the data set with HeLa Kyoto [3] was -0.078. The thermal stability score in the data set on HeLa Kyoto [4] (setting [5]) was -1.8; with HeLa Kyoto [4] (cell cycle stage: mitosis), -2.6.

On to “MDSRLQEIRERQKLRRQLLAQQLGAESADSIGAVLNSKDEQREIAETRETCRASYDTSAPNAKRKYLDEGETDEDKMEEYKDELEMQQDEENLPYEEEIYKDSSTFLKGTQSLNPHNDYCQHFVDTGHRPQNFIRDVGLADRFEEYPKLRELIRLKDELIAKSNTPPMYLQADIEAFDIRELTPKFDVILLEPPLEEYYRETGITANEKCWTWDDIMKLEIDEIAAPRSFIFLWCGSGEGLDLGRVCLRKWGYRRCEDICWIKTNKNNPGKTKTLDPKAVFQRTKEHCLMGIKGTVKRSTDGDFIHANVDIDLIITEEPEIGNIEKPVEIFHIIEHFCLGRRRLHLFGRDSTIRPGWLTVGPTLTNSNYNAETYASYFSAPNSYLTGCTEEIERLRPKSPPPKSKSDRGGGAPRGGGRGGTSAGRGRERNRSNFRGERGGFRGGRGGAHRGGFPPR [METTL14]”, for which, in the data set on HeLa Kyoto [1], the “solubility in G1/S (log2)” value is 0.0131. Besides, the melting temperature in the data set with HeLa Kyoto [2] (cell cycle stage: G1/S) was 52.3 °C; in the data set on HeLa Kyoto [2] (cell cycle stage: mitosis), 53.4 °C. For the same sequence, the “solubility change mitosis (log2)” value in the data set with HeLa Kyoto [3] is -0.118. Further, the figures for the thermal stability score with HeLa Kyoto [4] (setting [5]) and in the data set on HeLa Kyoto [4] (cell cycle stage: mitosis) were -0.705 and 0.141, respectively.
